Assay results from US20260234242A1 (HAINAN SIMCERE ZAIMING PHARMACEUTICAL, published 2026).

T1: human CDH6 with EC1 removed, on HEK293T cells (HEK293T-hCDH6-EC1 deletion) (human, UniProt P55285 160-790)
T1 construct: Signal peptide not removed here
T1 sequence: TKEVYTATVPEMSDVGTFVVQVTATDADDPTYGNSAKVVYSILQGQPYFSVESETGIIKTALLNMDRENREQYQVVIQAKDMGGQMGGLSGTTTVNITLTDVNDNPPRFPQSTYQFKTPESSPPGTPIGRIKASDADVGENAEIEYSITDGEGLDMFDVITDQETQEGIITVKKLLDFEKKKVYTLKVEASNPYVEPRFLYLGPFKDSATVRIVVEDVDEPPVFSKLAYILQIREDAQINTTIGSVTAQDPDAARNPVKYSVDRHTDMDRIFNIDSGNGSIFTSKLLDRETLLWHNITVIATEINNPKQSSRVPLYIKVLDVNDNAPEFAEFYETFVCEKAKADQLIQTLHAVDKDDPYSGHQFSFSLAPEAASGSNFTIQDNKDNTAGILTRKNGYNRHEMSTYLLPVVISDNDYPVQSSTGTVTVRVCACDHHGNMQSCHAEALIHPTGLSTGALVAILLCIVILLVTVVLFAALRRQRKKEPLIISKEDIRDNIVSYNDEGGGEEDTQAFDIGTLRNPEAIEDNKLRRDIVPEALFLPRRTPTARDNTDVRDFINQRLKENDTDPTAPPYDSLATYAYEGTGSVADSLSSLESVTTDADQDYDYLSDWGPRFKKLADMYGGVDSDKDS

T2: his-tagged human CDH6 extracellular region protein (hCDH6 ECD-his) (human, UniProt P55285 19-615)
T2 construct: also called Human CDH6-his; hCDH6-his; not shown: his tag
T2 sequence: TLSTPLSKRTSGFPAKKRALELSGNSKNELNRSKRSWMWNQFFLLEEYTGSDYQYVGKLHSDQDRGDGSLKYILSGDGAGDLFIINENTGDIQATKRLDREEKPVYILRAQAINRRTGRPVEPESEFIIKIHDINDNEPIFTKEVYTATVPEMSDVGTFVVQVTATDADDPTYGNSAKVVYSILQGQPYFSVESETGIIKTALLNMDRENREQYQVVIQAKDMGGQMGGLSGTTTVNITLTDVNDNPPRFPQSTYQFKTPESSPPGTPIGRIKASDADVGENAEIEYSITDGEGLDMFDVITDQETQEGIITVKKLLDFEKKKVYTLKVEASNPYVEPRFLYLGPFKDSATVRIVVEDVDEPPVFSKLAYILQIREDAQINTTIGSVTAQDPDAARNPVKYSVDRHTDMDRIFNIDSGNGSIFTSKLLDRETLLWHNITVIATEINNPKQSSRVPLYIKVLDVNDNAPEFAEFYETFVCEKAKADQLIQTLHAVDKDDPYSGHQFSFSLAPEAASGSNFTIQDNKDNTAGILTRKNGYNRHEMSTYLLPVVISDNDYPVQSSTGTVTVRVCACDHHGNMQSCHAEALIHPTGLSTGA

T3: human CDH6 with EC2 removed, on HEK293T cells (HEK293T-hCDH6-EC2 deletion) (human, UniProt P55285 54-790)
T3 construct: Signal peptide not removed here
T3 sequence: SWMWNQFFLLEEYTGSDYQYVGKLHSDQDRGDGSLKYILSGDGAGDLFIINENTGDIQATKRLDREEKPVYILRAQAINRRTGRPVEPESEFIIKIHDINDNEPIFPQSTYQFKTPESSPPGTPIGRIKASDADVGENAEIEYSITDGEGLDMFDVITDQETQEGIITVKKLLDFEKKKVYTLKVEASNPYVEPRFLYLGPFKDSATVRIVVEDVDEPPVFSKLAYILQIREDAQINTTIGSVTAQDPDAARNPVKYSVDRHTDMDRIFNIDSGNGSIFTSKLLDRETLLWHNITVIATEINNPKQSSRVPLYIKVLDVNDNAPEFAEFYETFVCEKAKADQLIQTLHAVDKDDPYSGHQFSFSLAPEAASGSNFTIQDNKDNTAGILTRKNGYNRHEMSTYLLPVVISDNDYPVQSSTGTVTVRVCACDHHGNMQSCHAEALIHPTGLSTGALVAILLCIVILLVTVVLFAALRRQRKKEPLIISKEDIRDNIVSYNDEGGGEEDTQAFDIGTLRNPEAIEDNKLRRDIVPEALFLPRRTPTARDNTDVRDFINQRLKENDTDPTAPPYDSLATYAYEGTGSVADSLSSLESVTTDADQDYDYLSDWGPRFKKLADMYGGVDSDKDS


Experiments:
[1] = target: T1, human CDH6 with EC1 removed, on HEK293T …; experiment: FACS, HEK293T-hCDH6-EC1 deletion cells
[2] = target: T2, his-tagged human CDH6 extracellular …; experiment: ELISA, coated antigen; ELISA, coated hCDH6 ECD-his; plateau signal
Procedure: (§1) Human CDH6 protein (hCDH6 ECD-his, conventionally synthesized), monkey CDH6 protein (cynoCDH6 ECD-his, conventionally synthesized; the cynoCDH6 ECD sequence was derived from Uniprot #A0A2K5TW62 (19-615)), and murine CDH6 protein (mCDH6 ECD-his, conventionally synthesized; the mCDH6 ECD sequence was derived from Uniprot #P97326 (19-615)) were diluted with PBS to a final concentration of 1 μg/mL, and added to a 96-well ELISA plate at 100 μL/well. The plate was incubated at 4° C. overnight. The next day, the plate was washed 3 times with a plate washing solution (PBS+0.01% (v/v) Tween 20), and a blocking buffer (PBS+0.01% (v/v) Tween 20+2% (w/w) BSA) was added for blocking at room temperature for 2 h. The blocking buffer was discarded, and the plate was washed 3 times. The chimeric antibodies were diluted with 1% BSA+PBS (purchased from Cytiva, Cat. No. SH30264.01) and added to the 96-well plate at 50 μL/well. After incubation at 37° C. for 2 h, the plate was washed 3 times with a plate washing solution. […] The plate was incubated at 37° C. for 1 h and then washed 5 times with a plate washing solution. A TMB substrate (purchased from Seracare, Cat. No. 5120-0077) was added at 50 μL/well and incubated at room temperature for 10 min, then a stop solution (1.0 N HCl) was added at 50 μL/well. OD450 nm values were read using a microplate reader (Biotek). Analysis was performed by the GraphPad Prism software, data were fitted, and EC50 values were calculated. The chimeric antibodies tested all had strong binding to the human CDH6 protein, the monkey CDH6 protein, and the murine CDH6 protein.

[3] = target: T3, human CDH6 with EC2 removed, on HEK293T …; experiment: FACS, HEK293T-hCDH6-EC2 deletion cells
[4] = target: T2, his-tagged human CDH6 extracellular …; experiment: ELISA, coated antigen; ELISA, hCDH6 ECD-his coated at 1 µg/mL, antibody in solution
Procedure: as §1

[5] = target: T2, his-tagged human CDH6 extracellular …; experiment: ELISA, coated antigen
Procedure: as §1

| Binder | Max MFI [1] [MFI] | Max OD450 [2] [OD450] | Max MFI [3] [MFI] | EC50 [4] [nM] | EC50 [5] [nM] | Max OD450 [5] [OD450] |
| --- | --- | --- | --- | --- | --- | --- |
| CHI-CDH6-3 (antibody, human IgG1, kappa, V domains shown, also called CH1-CDH6-3; chimeric antibody of murine CDH6-3) VH: QVQLQQPGAELVKPGASVKLSCKASGYTFTSYWIHWVKQRPGQGLEWIGEINPSNGVTNCNENFKSKATLTVDKSSSTAYMQLSSLTSEDSAVYYCTIPNLLWWYFDVWGAGTTVTVSS VL: DIQMTQSPASLSVSVGETVTITCRASENIYSNLAWYQQKQGKSPQLLVYEATNLADGVPSRFSGSGSGTQYSLKINSLQSEDFGSYYCQHFWGTLWTFGGGTKLEIKR | 11100 | 2.56 | 7550 | 0.03 | – | – |
| CHI-CDH6-14 (antibody, human IgG1, kappa, V domains shown, also called CHI-hCDH6-14; CH1-CDH6-14) VH: QIQLQQSGPELVKPGTSVKISCKASGYTFTDNYINWVRQRPGQGLEWIGWIYPGTGNSYYNEKFKGKATLTVDTSSSTAYMQFSSLTSEDSAVYLCASSYGDSFDYWGQGTTLTVSS VL: DIQMTQTTSSLSASLGNRVTISCRASQDIRNYLNWYQQKPDGTFKLLISYTSRLHSGVPSRFSGSGSGTDYSLTVSNLEPEDIATYYCQQYSQLPWTFGGGSRLEIKR | 7210 | – | 814 | – | – | – |
| NOV0712 (antibody, human IgG1, kappa, V domains shown, Positive control, variable regions from WO2018212136A1; also called positive control anti-human CDH6 antibody) VH: QVQLLESGGGLVQPGGSLRLSCAASGFTFSSHGMHWVRQAPGKGLEWVSVISGSGSNTGYADSVKGRFTISRDNSKNTLYLQMNSLRAEDTAVYYCARQWGSYAFDSWGQGTLVTVSS VL: DIQMTQSPSSLSASVGDRVTITCRASQSISSYLNWYQQKPGKAPKLLIYAVSTLQSGVPSRFSGSGSGTDFTLTISSLQPEDFATYYCQQSGTFPPTTFGQGTKVEIKR | 23600 | – | 39100 | – | 0.043 | 2.32 |
| CHI-CDH6-1 (antibody, human IgG1, kappa, V domains shown, also called CHI-hCDH6-1; CH1-CDH6-1) VH: QVQLQQPGAELVRPGSSVKLSCKASGYTFTNYWMHWVKQRPIEGLEWIGDIDPSHSETHYTQKFKDKATLTVDKSSSTAYMQLSSLTSEDSAVYYCARGDLGRFDYWGQGTTLTVSS VL: DIVLTQSPASLAVSLGQRATISCRASESVSIHGTHLMHWYQQKSGQPPKLLIYAASNLESGVPARFSGSGSETDFTFNIHPVEEEDAATYFCQQSFEDPWTFGGGTKLEIKR | 84 | – | 51300 | – | 0.04 | 2.23 |
| CHI-CDH6-11 (antibody, human IgG1, kappa, V domains shown, also called chimeric antibody of murine CDH6-11) VH: QIQLQQSGPELVKPGASVRISCKASGYTFTDYYITWVKLRPGQGLEWIGWIYPGSVNIKYNEKFKGKATLTVDTSSSTAYMQLNSLTSEDSAVYFCARGGYSWFPYWGQGTLVTVSA VL: NIVMTQSPKSMSMSVGERVTLSCKASENVHTYVSWYQQKPEQSPKLLFYGASTRNTGVPDRFTGSGSATDFTLTISSVQAEDLADYYCGQSYSYPYTFGSGTKLEIKR | – | – | – | – | 0.034 | 2.24 |

The next lines start with the values.

| Max MFI [1] [MFI] | Max OD450 [2] [OD450] | Max MFI [3] [MFI] | EC50 [4] [nM] | EC50 [5] [nM] | Max OD450 [5] [OD450] | Binder |
| --- | --- | --- | --- | --- | --- | --- |
| – | – | – | – | 0.034 | 2.18 | CHI-CDH6-6 (antibody, human IgG1, kappa, V domains shown, also called CHI-hCDH6-6; chimeric antibody of murine CDH6-6) VH: EVQLQQSGPELVKPGDSVKMSCKASGYTFTDYYMAWVRQSHRKSLEWIGYIFPNSGGTDYSQKFKGKATLTVDKSSSTVYMELHSLTSEDSAVYYCARELGADYGDYYAMDHWGQGTSVSVSS VL: DIQMTQSPASLSASVGETVTITCRASENIDSYLAWYQQKQGKSPQLLVYSATLLADGVPSRFSGSGSGTQYSLKINSLKSEDVARYYCQHYYRTPPTFGSGTKLEIKR |
| – | – | – | – | 0.033 | 2.31 | CHI-CDH6-8 (antibody, human IgG1, kappa, V domains shown, also called chimeric antibody of murine CDH6-8) VH: EVQLQQSGPELVKPGDSVKMSCKASGYTFTDYYMAWIKQNHGKSLEWIGYIYPNNGGTDYNQKFRGKATLTVDKSSSAAYMELHSLTSEDSAVYYCAREIGTLYGDYYAMDYWGQGTSVTVSS VL: DIQMTQSPASLSASVGETVTITCRASENIDSYLAWYQQKQGKSPQLLVYTATLLADGVPSRFSGSGSGTQYSLKINSLQSEDVARYYCQHYYSTPPTFGSGTKLEIKR |
| – | – | – | – | 0.025 | 2.03 | CHI-CDH6-10 (antibody, human IgG1, kappa, V domains shown, also called chimeric antibody of murine CDH6-10) VH: QVQLQQPGAELVKPGTSVKMSCKASGYTFTSDWIAWVKQRPGQGLEWIGDIYPGSGRTHNNEKFNFKATLTVDTSSNTAYMQLSSLTSEDSAVYFCARPMLGRFDYWGQGTTLTVSS VL: DIVLTQSPASLAVSLGQRATISCRASESVSIHGTHLMHWYQQKPGQPPKLLIYAASNLESGVPARFSGSGSETDFTLNIHPVEEEDAATYFCQQSFEDPFTFGSGTKLEIKR |
| – | – | – | – | 0.027 | 2.07 | CHI-CDH6-2 (antibody, human IgG1, kappa, V domains shown, also called chimeric antibody of murine CDH6-2) VH: EVQLQQSGPELVKPGASVRISCKASGYTFTDYYMNWVKQSHGKSLEWIGDIDPNNANTTYNQKFKGKATLTVDKSSSTAYMELRSLTSEDSAVYSCASFGYDVEWFGYWGQGTLVTVSA VL: QIVLTQSPALMSASPGEKVTMTCSASSSVSYMYWYQQKPRSSPKPWIYLTSNLASGVPARFSGSGSGTSYSLTISSMEAEDAATYYCQQWSSNPFTFGSGTKLEIKR |
| – | – | – | – | 0.009 | 2.62 | CHI-CDH6-13 (antibody, human IgG1, kappa, V domains shown, also called chimeric antibody of murine CDH6-13) VH: DVQLQESGPGLVKPSQSLSLTCSVTGYSITKDSYWNWIRQFPGSKLEWMGFISYDGSRHYNPSLKNRISITRDTSKNQFFLQLNSVTTEDTATYYCARRDYADYWGQGTTLTVSS VL: QIVLTQSPALMSAFPGEKVTMTCSATSSVSYIYWYQQKPRSSPKPWIYLTSNLASGVPARFSGSGSGTSYSLTINSLEAEDAATYYCQQWSSIPYTFGGGTKLEIKR |
| – | – | – | – | 0.016 | 2.58 | CHI-CDH6-9 (antibody, human IgG1, kappa, V domains shown, also called chimeric antibody of murine CDH6-9) VH: QVQLQQPGAELVKPGASVKLSCKASGYTFTGYWMHWVRQRPGQGLEWIGEINPNNGGTNCNEQFKNKATLTVDKSSSTAYMQLSSLTSEDSAVFYCTISFGNYLFFDVWGAGTTVTVSS VL: DIQMTQSPASLAASVGETITITCQASENIYFSLAWYQQKQGKSPQLLIYNANTLEDGVPSRFVGSGSGTQYSMKINSIQPEDTATYFCDQTYDFPWTFGGGTKLEIKR |
